Results published in patent US20190142860A1, “NUCLEIC ACID BASED TIA-1 INHIBITORS” (Aquinnah Pharmaceuticals, Inc., priority 2015, published 2019).

Assays:
[1] = target: Nucleolysin TIA-1 (endogenous mouse TIA1) (mouse) (UniProt P52912); assay: TIA1 IP-MS, WT2 cortex
[2] = target: Nucleolysin TIA-1 (endogenous mouse TIA1) (mouse) (UniProt P52912); assay: TIA1 IP-MS, tau KO 3 cortex
[3] = target: Nucleolysin TIA-1 (endogenous mouse TIA1) (mouse) (UniProt P52912); assay: TIA1 IP-MS, tau KO 2 cortex
[4] = target: Nucleolysin TIA-1 (endogenous mouse TIA1) (mouse) (UniProt P52912); assay: TIA1 IP-MS, tau KO 1 cortex
[5] = target: Nucleolysin TIA-1 (endogenous mouse TIA1) (mouse) (UniProt P52912); assay: TIA1 IP-MS, WT3 cortex
[6] = target: Nucleolysin TIA-1 (endogenous mouse TIA1) (mouse) (UniProt P52912); assay: TIA1 IP-MS, WT1 cortex

Sequence of UniProt P52912 (P52912 whole entry): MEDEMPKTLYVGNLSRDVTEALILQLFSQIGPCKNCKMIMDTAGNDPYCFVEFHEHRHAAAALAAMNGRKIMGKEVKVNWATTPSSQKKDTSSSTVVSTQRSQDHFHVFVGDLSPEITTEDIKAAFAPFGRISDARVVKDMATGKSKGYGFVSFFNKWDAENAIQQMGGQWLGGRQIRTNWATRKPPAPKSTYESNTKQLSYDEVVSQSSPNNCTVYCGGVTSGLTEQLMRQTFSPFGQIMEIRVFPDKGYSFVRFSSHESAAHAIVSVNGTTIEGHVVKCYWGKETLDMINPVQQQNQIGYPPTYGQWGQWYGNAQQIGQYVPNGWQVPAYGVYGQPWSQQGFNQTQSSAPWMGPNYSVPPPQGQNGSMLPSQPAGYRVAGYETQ

Substance | total ion current (normalized to TIA1 = 1000) [1] | total ion current (normalized to TIA1 = 1000) [2] | total ion current (normalized to TIA1 = 1000) [3] | total ion current (normalized to TIA1 = 1000) [4] | total ion current (normalized to TIA1 = 1000) [5] | total ion current (normalized to TIA1 = 1000) [6]
Cleavage and polyadenylation specificity factor subunit 6 (from UniProt Q6NVF9 1-551) | 147 | 0 | 76.2 | 0 | 0 | 0
Cluster of Phosphatidylinositol 5-phosphate 4-kinase type-2 alpha (from UniProt O70172 2-405) | 75.3 | 0 | 6.9 | 0 | 18.8 | 0
Cluster of Ras-related protein Rab-5C (from UniProt P35278 1-216) | 210 | 0 | 213 | 0 | 337 | 0
Coronin-1A (from UniProt O89053 2-461) | 74.2 | 0 | 31 | 0 | 0 | 0
Cytochrome b-c1 complex subunit 1, mitochondrial (from UniProt Q9CZ13 35-480) | 1320 | 0 | 1030 | 0 | 2460 | 0
Dihydrolipoyl dehydrogenase, mitochondrial (from UniProt O08749 36-509) | 107 | 0 | 31.3 | 0 | 0 | 0
Dihydrolipoyllysine-residue acetyltransferase component of pyruvate dehydrogenase complex, mitochondrial (from UniProt Q8BMF4 86-642) | 353 | 0 | 130 | 0 | 0 | 0
Dihydropyrimidinase-related protein 3 (from UniProt Q62188 1-570) | 192 | 0 | 96 | 0 | 14.7 | 0
Dual specificity mitogen-activated protein kinase kinase 1 (from UniProt P31938 1-393) | 108 | 0 | 67.8 | 0 | 83.7 | 0
Eukaryotic initiation factor 4A-I (from UniProt P60843 2-406) | 150 | 0 | 121 | 0 | 76.1 | 0
Fructose-bisphosphate aldolase C (from UniProt P05063 2-363) | 69.5 | 0 | 43.2 | 0 | 41.6 | 0
Glutamate dehydrogenase 1, mitochondrial (from UniProt P26443 54-558) | 402 | 0 | 365 | 0 | 162 | 0
Glutathione S-transferase Mu 1 (from UniProt P10649 2-218) | 286 | 0 | 91.1 | 0 | 57.4 | 0
Glutathione S-transferase P 1 (from UniProt P19157 2-210) | 0 | 0 | 0 | 0 | 0 | 31.6
Glycerol-3-phosphate dehydrogenase, mitochondrial (from UniProt Q64521 43-727) | 0 | 0 | 0 | 18.8 | 0 | 3.01
Guanine deaminase (from UniProt Q9R111 1-454) | 0 | 0 | 75.3 | 0 | 68.5 | 0
Guanine nucleotide-binding protein G(z) subunit alpha (from UniProt O70443 2-355) | 59.4 | 0 | 0 | 0 | 0 | 0
Hemoglobin subunit alpha (from UniProt P01942 2-142) | 69.1 | 0 | 0 | 0 | 0 | 0
Heterogeneous nuclear ribonucleoprotein R (from UniProt Q8VHM5 2-632) | 374 | 0 | 69.2 | 26.7 | 48.5 | 34.6
Heterogeneous nuclear ribonucleoprotein U-like protein 2 (from UniProt Q00PI9 1-745) | 53.3 | 0 | 17 | 11.7 | 0 | 11.1
High mobility group protein B1 (from UniProt P63158 1-215) | 182 | 0 | 60.8 | 15.7 | 38 | 6.6
Histone H1.4 (from UniProt P43274 2-219) | 56 | 0 | 55.4 | 0 | 78.1 | 0
Hypoxanthine-guanine phosphoribosyltransferase (from UniProt P00493 1-218) | 21 | 0 | 54.1 | 0 | 0 | 0
Isocitrate dehydrogenase [NAD] subunit alpha, mitochondrial (from UniProt Q9D6R2 28-366) | 186 | 0 | 155 | 0 | 138 | 0
Isocitrate dehydrogenase [NAD] subunit, mitochondrial (from UniProt Q91VA7 34-384) | 110 | 0 | 29.9 | 0 | 0 | 0
Isoform 2 of 4-aminobutyrate aminotransferase, mitochondrial (from UniProt P61922 29-444) | 272 | 0 | 112 | 0 | 79.4 | 0
Isoform 2 of AP-2 complex subunit beta (from UniProt Q9DBG3 2-951) | 105 | 0 | 102 | 0 | 67.8 | 0
